According to US20090298167A1 (Pfizer, published 2009):

Tests used:
[1] = target: T1, human IL-21R expressed on cells (human, UniProt Q9HBE5 20-538); test: cell-based or functional assay
[2] = target: T2, murine IL-21R expressed on cells (murine, UniProt Q9JHX3 20-529); test: cell-based or functional assay
[3] = target: T3, human gamma common chain expressed on CHO cells (human, UniProt P31785 23-369); test: cell ELISA on transfected CHO cells, 13 nM IgG
T3 construct: whole, on cells; Control protein; also called human IL-2R-γ common subunit; human gamma (γ) common chain
T3 sequence (looked up): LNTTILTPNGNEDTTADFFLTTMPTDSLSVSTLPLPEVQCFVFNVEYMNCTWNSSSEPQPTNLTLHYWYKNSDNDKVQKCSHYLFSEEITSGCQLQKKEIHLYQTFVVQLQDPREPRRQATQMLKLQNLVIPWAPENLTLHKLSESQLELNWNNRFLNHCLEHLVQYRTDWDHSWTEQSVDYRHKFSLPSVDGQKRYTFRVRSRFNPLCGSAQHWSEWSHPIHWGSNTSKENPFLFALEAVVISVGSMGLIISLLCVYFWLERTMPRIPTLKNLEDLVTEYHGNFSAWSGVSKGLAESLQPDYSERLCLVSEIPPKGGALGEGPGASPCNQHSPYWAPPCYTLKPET

[4] = target: T4, rat IL-21R expressed on cells (rat); test: cell ELISA on transfected CHO cells, 13 nM IgG
T4 construct: whole, on cells; Transiently transfected CHO-PA-Dukx cells

[5] = target: T1, human IL-21R expressed on cells; test: cell ELISA on transfected CHO cells, 13 nM IgG
[6] = target: T5, cynomolgus monkey IL-21R expressed on CHO cells (cynomolgus monkey); test: cell ELISA on transfected CHO cells, 13 nM IgG
T5 construct: whole, on cells

[7] = target: T4, rat IL-21R expressed on cells; test: cell ELISA: CHO cells transiently expressing the receptor, antibody in conditioned medium, HRP anti-human IgG, A450
Method: (§1) A subset of binding proteins was tested for binding to rat, cynomolgus monkey, human IL-21R, or human IL-2R-γ common subunit expressed transiently on the surfaces of CHO-PA-Dukx cells. Cells were transfected 48 hr prior to the assay. On the day of the assay, cells were washed gently 5× in PBS containing 0.9 mM CaCl₂ and 0.45 mM MgCl₂ (PBS/CaMg) on an automated plate washer (Titertek, Huntsville, Ala.), and blocked for 1 hr at RT in PBS/CaMg/5% nonfat dry milk. Conditioned media from transiently expressed anti-IL-21R IgGs were serially diluted in blocking buffer and added to the cells in the blocked plates for 1 hr at RT. Cells were washed 5× with PBS/CaMg and then incubated with horseradish peroxidase-conjugated anti-human IgG for 1 hr at RT. Cells were then washed 10× in PBS/CaMg and all of the wash buffer was removed. Cells were incubated with 100 μl TMB until the color reaction reached saturation, stopped with 100 μl of 0.18 M H₂SO₄, and read at A450 on a Perkin Elmer ENVISION™ plate reader.

[8] = target: T2, murine IL-21R expressed on cells; test: cell-based or functional assay; remark: listed apart in the source
[9] = target: T1, human IL-21R expressed on cells; test: cell-based or functional assay; remark: listed apart in the source
[10] = target: T1, human IL-21R expressed on cells; test: cell-based or functional assay; remark: listed apart in the source
[11] = target: T6, human soluble IL-4R (human, UniProt P24394 26-231, limits assumed); test: BIACORE: antibody captured on anti-human IgG, 50 nM analyte injected
T6 construct: soluble; also called human sIL-4R
T6 sequence (P24394 26-231 limits assumed): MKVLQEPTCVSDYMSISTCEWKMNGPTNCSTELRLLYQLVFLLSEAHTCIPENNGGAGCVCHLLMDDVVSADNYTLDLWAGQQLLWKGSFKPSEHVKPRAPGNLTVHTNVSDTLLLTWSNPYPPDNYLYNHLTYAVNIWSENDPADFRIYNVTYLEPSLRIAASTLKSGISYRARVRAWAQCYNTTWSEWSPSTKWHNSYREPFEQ
Method: (§2) The specificity of binding of a subset of transiently expressed anti-IL-21R binding proteins (here antibodies) was tested on a BIACORE™ 2000 surface plasmon resonance instrument. Anti-human-IgG, anti-murine immunoglobulin antibodies, and murine IL-21R-H/F were immobilized onto a research-grade carboxymethyl-dextran chip (CM5) using standard amine coupling. The sensor chip surface was activated with EDC/NHS for 7 min at a flow rate of 20 μl/min. The first flow cell was used as reference surface to correct for bulk refractive index, matrix effects, and nonspecific binding. […] Remaining activated groups were blocked with 1.0 M ethanolamine (pH 8.0). The molecular weights of the anti-human IgG and the anti-murine IgG were both 150 kD, and the molecular weight of the IL-21R monomer was 27 kD.
(§3) Conditioned media containing anti-IL-21R antibodies and antibody controls (murine anti-human IL-2Rβ and murine anti-human IL-4R(R&D Systems, Minneapolis, Minn.); human anti-human IL-13 (Wyeth, Cambridge, Mass.)) were diluted in HBS/EP buffer supplemented with 0.2% bovine serum and injected onto all four flow cells of the BIACORE™ chip, capturing 500-700 (RU) of antibody on the species-appropriate capture antibody. Following a 5 sec washing period, 50 nM solutions of a positive control protein (murine IL-21R-H/F), two human proteins related to IL-21R (human IL-2Rβ and human sIL-4R(R&D Systems)), or an unrelated His/FLAG-tagged protein (human IL-13-H/F), were injected over the captured antibodies on the chip. The association and dissociation phases were monitored for 120 and 180 sec, respectively, followed by two 5 μl injections of glycine (pH 1.5) to regenerate a fully active capturing surface. All binding experiments were done at 25° C. in HBS/EP buffer. Blank and buffer effects were subtracted for each sensorgram using double referencing.

[12] = target: T7, human IL-2Rβ (human, UniProt P14784 27-239); test: as above
T7 construct: Bought
T7 sequence (looked up): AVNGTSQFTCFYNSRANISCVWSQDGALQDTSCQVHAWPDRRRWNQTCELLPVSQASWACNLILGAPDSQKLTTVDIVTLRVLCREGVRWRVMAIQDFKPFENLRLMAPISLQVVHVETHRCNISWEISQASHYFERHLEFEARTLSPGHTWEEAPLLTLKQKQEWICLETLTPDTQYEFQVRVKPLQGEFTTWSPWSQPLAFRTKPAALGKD
Method: as §2, §3

[13] = target: T8, human IL-13-His/FLAG (human, UniProt P35225 35-146, limits assumed); test: as above
T8 construct: Unrelated His/FLAG-tagged control; also called human IL-13-H/F
T8 sequence (P35225 35-146 limits assumed): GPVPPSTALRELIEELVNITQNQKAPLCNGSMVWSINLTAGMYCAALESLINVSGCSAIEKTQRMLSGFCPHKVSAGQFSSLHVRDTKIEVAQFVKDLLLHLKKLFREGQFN
Method: as §2, §3

[14] = target: T5, cynomolgus monkey IL-21R expressed on …; test: cell ELISA: CHO cells transiently expressing the receptor, antibody in conditioned medium, HRP anti-human IgG, A450
Method: FIG. 6 depicts the binding of 21 anti-IL-21R IgGs to CHO cells transiently expressing human IL-21R (FIGS. 6a-c), rat IL-21R (FIGS. 6d-f), cynomolgus monkey IL-21R (FIGS. 6g-i), and human gamma common chain (FIGS. 6j-l). CHO cells were transiently transfected with IL-21R or the control gamma common chain, and binding was detected with HRP-conjugated anti-human IgG in a cell-based ELISA.
as §1

[15] = target: T4, rat IL-21R expressed on cells; test: cell-based or functional assay

T1 sequence (Q9HBE5 20-538 limits assumed): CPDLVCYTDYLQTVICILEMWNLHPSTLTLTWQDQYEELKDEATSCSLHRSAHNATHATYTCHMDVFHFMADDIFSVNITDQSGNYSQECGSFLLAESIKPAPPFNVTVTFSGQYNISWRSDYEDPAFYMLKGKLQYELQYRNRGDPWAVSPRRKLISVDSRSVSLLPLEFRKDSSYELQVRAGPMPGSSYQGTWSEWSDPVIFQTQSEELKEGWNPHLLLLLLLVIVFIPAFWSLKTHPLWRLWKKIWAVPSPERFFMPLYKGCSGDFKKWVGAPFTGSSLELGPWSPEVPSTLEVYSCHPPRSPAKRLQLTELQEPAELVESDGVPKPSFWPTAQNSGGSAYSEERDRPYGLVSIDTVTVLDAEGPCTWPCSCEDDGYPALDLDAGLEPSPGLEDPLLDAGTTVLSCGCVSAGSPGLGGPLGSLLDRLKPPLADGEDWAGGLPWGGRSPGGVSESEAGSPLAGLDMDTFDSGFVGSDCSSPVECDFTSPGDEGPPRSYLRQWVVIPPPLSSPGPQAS
T2 sequence (Q9JHX3 20-529 limits assumed): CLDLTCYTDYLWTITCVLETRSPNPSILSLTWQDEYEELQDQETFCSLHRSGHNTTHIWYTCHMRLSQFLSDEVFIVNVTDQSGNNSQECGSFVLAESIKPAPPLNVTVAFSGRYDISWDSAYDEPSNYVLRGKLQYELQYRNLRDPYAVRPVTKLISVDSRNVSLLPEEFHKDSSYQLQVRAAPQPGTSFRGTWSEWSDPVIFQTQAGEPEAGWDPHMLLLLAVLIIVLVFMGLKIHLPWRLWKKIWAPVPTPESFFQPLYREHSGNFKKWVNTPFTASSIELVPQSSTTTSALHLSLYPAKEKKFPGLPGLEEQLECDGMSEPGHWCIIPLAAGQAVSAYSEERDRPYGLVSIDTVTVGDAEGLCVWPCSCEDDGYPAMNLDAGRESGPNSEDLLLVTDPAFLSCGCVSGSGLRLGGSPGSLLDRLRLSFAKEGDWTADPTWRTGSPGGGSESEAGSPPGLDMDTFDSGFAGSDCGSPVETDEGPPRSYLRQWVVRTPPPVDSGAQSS

| Binder | Human IL-21R-BaF3 Proliferation IC50 [1] [nM] | Human IL-21R-TF1 Proliferation IC50 [1] [nM] | Murine IL-21R-BaF3 Proliferation IC50 [2] [nM] | A450 at 13 nM Ab in cell ELISA [3] [A450] | A450 at 13 nM Ab in cell ELISA [4] [A450] | A450 at 13 nM Ab in cell ELISA [5] [A450] | A450 at 13 nM Ab in cell ELISA [6] [A450] | EC50 (read off the curve) [7] [nM] | Neutralization of T cell Proliferation IC50 (nM), murine primary CD8+ T cells [8] [nM] | Neutralization of B cell proliferation IC50 [9] [nM] | Neutralization of T cell Proliferation IC50 (nM), human primary CD4+ T cells [10] [nM] | binding result [11] | binding result [12] | binding result [13] | EC50 (read off the curve) [14] [nM] | IC50 (nM) experiment 1, rat T cell proliferation [15] [nM] | IC50 (nM) experiment 2, rat T cell proliferation [15] [nM] |
| --- | --- | --- | --- | --- | --- | --- | --- | --- | --- | --- | --- | --- | --- | --- | --- | --- | --- |
| AbG (antibody, human IgG1, V domains shown, Full-length human IgG1 / human lambda, transient, conditioned medium; Framework limits derived; also called VHP/VL18) VH: QVQLQESGPGLVKPSETLSLTCAVSGYSISSGYYWGWIRQPPGKGLEWIGSISHTGNTYYNPPLKSRVTISVDTSKNQFSLKLSSVTAADTAVYYCARGGGISRPEYWGQGTLVTVSS VL: SSELTQDPAVSVALGQTVRITCQGDSLRTYYASWYQQKPGQAPVLVIYGKHKRPSGIPDRFSGSSSGNTASLTITGAQAEDEADYYCVTRSVKGNPHVLFGGGTQLTVL | 0.77 | 3.84 | 0.07 | 0.108 | 1.11 | 1.35 | 1.3 | ~0.8 |  |  |  |  |  |  |  |  |  |
| AbU (antibody, human IgG1, V domains shown, Human IgG1 triple-mutant (L234A, L235A, G237A); Framework limits derived; also called VHP/VL25; VHPTM/VL25) VH: QVQLQESGPGLVKPSETLSLTCAVSGYSISSGYYWGWIRQPPGKGLEWIGSISHTGNTYYNPPLKSRVTISVDTSKNQFSLKLSSVTAADTAVYYCARGGGISRPEYWGQGTLVTVSS VL: SSELTQDPAVSVALGQTVRITCQGDSLRTYYASWYQQKPGQAPVLVIYGKHKRPSGIPDRFSGSSSGNTASLTITGAQAEDEADYYCTTRSNKGNPHVLFGGGTQLTVL | 0.73 | 3.13 | 0.184 | 0.104 | 0.927 | 1.29 | 1.31 |  | 1.79 | 0.13 | 0.03 | no binding (tested: 50 nM) | no binding (tested: 50 nM) | no binding (tested: 50 nM) | ~0.8 | 173 | 105 |
